Test results as given in PMC7094638 (Journal of Molecular Biology, 2007).
Read-outs that look alike come from different tables or passages of the source.

B1: 32-mer s2m dsDNA (dsDNA)
DNA 1: CGAGGCCACGCGGAGTACGATCGAGGGTACAG
DNA 2: CTGTACCCTCGATCGTACTCCGCGTGGCCTCG
B2: SARS-CoV NP248-365 (C-terminal domain of the SARS-CoV nucleocapsid protein, residues 248-365) (domain or fragment)
chain: TKKSAAEASKKPRQKRTATKQYNVTQAFGRRGPEQTQGNFGDQDLIRQGTDYKHWPQIAQFAPSASAFFGMSRIGMEVTPSGTWLTYHGAIKLDDKDPQFKDNVILLNKHIDAYKTFP

Assays:
[1] = target: SARS-CoV N protein NP281-365 (SARS-CoV, UniProt P59595 281-365); test: EMSA
[2] = target: SARS-CoV N protein NTD (NP45-181) (SARS-CoV, UniProt P59595 45-181); test: EMSA
[3] = target: T1, SARS-CoV N protein CTD (NP248-365) (SARS-CoV, UniProt P59595 248-365); test: EMSA
[4] = target: SARS-CoV N protein NP45-365 (SARS-CoV, UniProt P59595 45-365); test: EMSA
[5] = target: T1, SARS-CoV N protein CTD (NP248-365); test: EMSA; remark: listed apart in the source
cross-linking = target: the molecule itself; test: cross-linking

Binder	binding result [1]	binding result [2]	binding result [3]	binding result [4]	binding result [5]	binding result (cross-linking)
CGAGGCCACGCGGAGUACGAUCGAGGGUACAG (ssRNA) [s2m 32-mer ssRNA]	no binding	binds	binds	binds		
CGAGGCCACGCGGAGTACGATCGAGGGTACAG (ssDNA) [32-mer ssDNA mimic of s2m]	no binding	binds	binds	binds		
B1	no binding				binds	
B2						binds
